Assay results as given in patent US20140349340A1 (DSM SINOCHEM PHARMACEUTICALS NETHERLANDS B V, published 2014).
Residue numbers refer to the chain shown, from its start.

B1: MbtH-like protein VMbtH (other)
chain: MTNPFDNEDGTFFVLVNDEGQHSLWPTFAEVPAGWTRVHGEATRQECLAYVEENWTDLRPKSLIQALGA
notes: Expressed from pACYCtac-VMbtH in E. coli without a His-tag
B2: MbtH-like protein Tcp13 (other)
chain: MTNPFDNEDGSFLVLVNGEGQHSLWPAFAEVPDGWTGVHGPASRQDCLGYVEQNWTDLRPKSLISQISD
notes: Expressed from pACYCtac-Tcp13 in E. coli without a His-tag
B3: MbtH-like protein Tcp17 (other)
chain: B2 chain with K61R, I64V, S65E, I67A, S68D, D69A
notes: Expressed from pACYCtac-Tcp17 in E. coli without a His-tag

How the values were obtained:
Veg8_M1_A = Veg8_M1_A (uncultured soil bacterium); experiment: cell-based or functional assay
Veg8_M1_A (uncultured soil bacterium), sequence (chain, as listed by the source): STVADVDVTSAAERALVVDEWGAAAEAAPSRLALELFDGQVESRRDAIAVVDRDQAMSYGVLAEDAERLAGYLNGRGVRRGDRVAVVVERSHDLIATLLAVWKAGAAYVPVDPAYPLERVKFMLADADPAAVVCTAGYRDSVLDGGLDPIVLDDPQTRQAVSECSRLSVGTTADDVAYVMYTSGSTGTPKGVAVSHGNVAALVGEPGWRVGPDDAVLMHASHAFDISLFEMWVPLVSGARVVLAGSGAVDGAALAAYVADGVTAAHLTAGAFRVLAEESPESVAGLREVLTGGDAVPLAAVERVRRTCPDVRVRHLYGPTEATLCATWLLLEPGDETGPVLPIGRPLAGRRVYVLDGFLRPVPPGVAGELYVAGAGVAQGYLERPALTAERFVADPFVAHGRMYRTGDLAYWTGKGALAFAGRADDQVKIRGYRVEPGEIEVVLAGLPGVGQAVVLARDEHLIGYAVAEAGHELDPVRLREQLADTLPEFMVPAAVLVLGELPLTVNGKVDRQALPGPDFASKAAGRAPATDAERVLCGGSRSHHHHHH

Tcp11_M1_A = Tcp11_M1_A (Actinoplanes teichomyceticus); experiment: cell-based or functional assay
Tcp11_M1_A (Actinoplanes teichomyceticus), sequence (chain, as listed by the source): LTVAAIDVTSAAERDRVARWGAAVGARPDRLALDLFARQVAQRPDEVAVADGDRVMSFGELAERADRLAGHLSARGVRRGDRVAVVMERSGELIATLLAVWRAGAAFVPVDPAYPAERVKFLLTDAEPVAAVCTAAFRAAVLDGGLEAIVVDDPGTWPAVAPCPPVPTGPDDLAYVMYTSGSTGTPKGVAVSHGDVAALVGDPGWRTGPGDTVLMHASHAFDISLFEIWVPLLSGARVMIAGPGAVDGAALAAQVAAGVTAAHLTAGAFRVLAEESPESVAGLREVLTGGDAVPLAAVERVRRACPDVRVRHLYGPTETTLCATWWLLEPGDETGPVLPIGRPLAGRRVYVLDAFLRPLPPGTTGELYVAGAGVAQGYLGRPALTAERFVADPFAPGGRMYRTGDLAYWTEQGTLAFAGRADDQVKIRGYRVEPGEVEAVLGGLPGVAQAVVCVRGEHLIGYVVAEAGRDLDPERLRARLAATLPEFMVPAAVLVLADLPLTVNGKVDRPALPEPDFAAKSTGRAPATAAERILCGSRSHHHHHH

Tcp9_M1_AT = Tcp9_M1_AT (Actinoplanes teichomyceticus); experiment: cell-based or functional assay
Tcp9_M1_AT (Actinoplanes teichomyceticus), sequence (chain, as listed by the source limits assumed): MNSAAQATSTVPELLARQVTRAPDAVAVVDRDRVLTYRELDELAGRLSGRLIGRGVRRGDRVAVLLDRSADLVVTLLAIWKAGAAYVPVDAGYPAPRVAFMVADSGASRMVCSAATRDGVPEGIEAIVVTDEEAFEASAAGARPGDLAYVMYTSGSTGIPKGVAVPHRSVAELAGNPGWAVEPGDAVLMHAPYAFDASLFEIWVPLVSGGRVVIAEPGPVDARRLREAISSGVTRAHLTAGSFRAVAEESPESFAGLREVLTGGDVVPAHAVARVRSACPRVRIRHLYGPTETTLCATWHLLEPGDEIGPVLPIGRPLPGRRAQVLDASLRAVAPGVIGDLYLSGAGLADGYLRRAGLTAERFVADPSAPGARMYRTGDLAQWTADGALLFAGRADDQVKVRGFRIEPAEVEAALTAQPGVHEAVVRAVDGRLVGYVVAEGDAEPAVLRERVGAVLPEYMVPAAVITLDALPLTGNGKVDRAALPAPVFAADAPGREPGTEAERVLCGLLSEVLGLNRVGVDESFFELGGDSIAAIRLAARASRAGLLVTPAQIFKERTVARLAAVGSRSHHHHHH

ComB_M1_A = ComB_M1_A (Streptomyces lavendulae); experiment: His-tag (TALON) co-purification after co-expression in E. coli, SDS-PAGE
Veg8_M1_ATE = Veg8_M1_ATE (uncultured soil bacterium); experiment: as above

| Binder | Formed PPi (PPi release assay), D-HPG 0.1 mM (Veg8_M1_A) [mM/min/mM enzyme] | Formed PPi (PPi release assay), D-HPG 1 mM (Veg8_M1_A) [mM/min/mM enzyme] | Formed PPi (PPi release assay), D-PG 1 mM (Veg8_M1_A) [mM/min/mM enzyme] | Formed PPi (PPi release assay), L-HPG 0.1 mM (Veg8_M1_A) [mM/min/mM enzyme] | Formed PPi (PPi release assay), L-HPG 1 mM (Veg8_M1_A) [mM/min/mM enzyme] | Formed PPi (PPi release assay), L-PG 1 mM (Veg8_M1_A) [mM/min/mM enzyme] | Formed PPi (PPi release assay), D-HPG 0.1 mM (Tcp11_M1_A) [mM/min/mM enzyme] | Formed PPi (PPi release assay), D-HPG 1 mM (Tcp11_M1_A) [mM/min/mM enzyme] | Formed PPi (PPi release assay), D-PG 1 mM (Tcp11_M1_A) [mM/min/mM enzyme] | Formed PPi (PPi release assay), L-HPG 0.1 mM (Tcp11_M1_A) [mM/min/mM enzyme] | Formed PPi (PPi release assay), L-HPG 1 mM (Tcp11_M1_A) [mM/min/mM enzyme] | Formed PPi (PPi release assay), L-PG 1 mM (Tcp11_M1_A) [mM/min/mM enzyme] | Formed PPi (PPi release assay), D-HPG 0.1 mM (Tcp9_M1_AT) [mM/min/mM enzyme] | Formed PPi (PPi release assay), D-HPG 1 mM (Tcp9_M1_AT) [mM/min/mM enzyme] | Formed PPi (PPi release assay), D-PG 1 mM (Tcp9_M1_AT) [mM/min/mM enzyme] | Formed PPi (PPi release assay), L-HPG 0.1 mM (Tcp9_M1_AT) [mM/min/mM enzyme] | Formed PPi (PPi release assay), L-HPG 1 mM (Tcp9_M1_AT) [mM/min/mM enzyme] | Formed PPi (PPi release assay), L-PG 1 mM (Tcp9_M1_AT) [mM/min/mM enzyme] | binding result (ComB_M1_A) | binding result (Veg8_M1_ATE) |
| --- | --- | --- | --- | --- | --- | --- | --- | --- | --- | --- | --- | --- | --- | --- | --- | --- | --- | --- | --- | --- |
| B1 | 0.18 | 1.39 | 0.02 | 0.61 | 0.61 | 0.2 | 0 | 0.86 | 0 | 1.38 | 1.54 | 0.09 | 3.72 | 8.44 | 0.07 | 1.23 | 1.4 | 2.32 | binds | binds |
| B2 | 0.14 | 0.92 | 0.01 | 0.56 | 0.59 | 0.17 | 0.08 | 0.66 | 0 | 0.8 | 1.03 | 0.17 | 2.07 | 5.28 | 0.05 | 1.18 | 1.16 | 1.32 | binds | binds |
| B3 | 0.17 | 1.03 | 0.02 | 0.7 | 0.64 | 0.14 | 0.11 | 0.63 | 0.04 | 0.95 | 1.04 | 0.23 | 1.71 | 4.63 | 0.05 | 1.2 | 1.34 | 1.44 | binds | binds |
